PMC12412652 (2025)

Experiments:
Test in all cases: BLI
BCL-W = target: T1, BCL-W (Homo sapiens)
T1 chain: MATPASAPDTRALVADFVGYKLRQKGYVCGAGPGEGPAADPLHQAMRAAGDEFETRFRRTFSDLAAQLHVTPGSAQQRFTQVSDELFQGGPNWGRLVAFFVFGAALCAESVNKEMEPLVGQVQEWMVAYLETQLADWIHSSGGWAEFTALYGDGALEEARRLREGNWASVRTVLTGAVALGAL

BCL-XL = BCL-XL (Homo sapiens)
BCL-B = target: T2, BCL-B (Homo sapiens)
T2 chain: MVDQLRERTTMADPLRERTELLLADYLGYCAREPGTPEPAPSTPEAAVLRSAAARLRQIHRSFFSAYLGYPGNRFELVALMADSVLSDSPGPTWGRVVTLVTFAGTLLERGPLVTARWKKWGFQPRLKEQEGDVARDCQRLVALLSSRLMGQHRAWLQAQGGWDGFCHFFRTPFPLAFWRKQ

MCL-1 = target: T3, MCL-1 (Homo sapiens)
T3 chain: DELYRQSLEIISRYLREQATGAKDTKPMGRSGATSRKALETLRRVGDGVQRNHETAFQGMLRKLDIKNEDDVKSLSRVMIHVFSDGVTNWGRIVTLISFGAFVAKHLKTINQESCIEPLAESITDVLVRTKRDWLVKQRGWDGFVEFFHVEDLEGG

BCL-2 = BCL-2 (UniProt P10415 1-239, biotin)
BFL-1 = target: T4, BFL-1 (UniProt Q16548 1-175, biotin)
T4 chain: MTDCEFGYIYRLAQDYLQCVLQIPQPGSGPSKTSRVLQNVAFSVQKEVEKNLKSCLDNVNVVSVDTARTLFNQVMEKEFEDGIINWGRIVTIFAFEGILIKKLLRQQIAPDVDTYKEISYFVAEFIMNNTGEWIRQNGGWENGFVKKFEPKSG

[1] = target: MBP-BAK 16-186, biotinylated (Avi tag, 6-histidine tag) (human, UniProt Q16611 16-186, biotin on the Avi tag (enzymatic, BirA))

BCL-XL (Homo sapiens), sequence (chain, as listed by the source): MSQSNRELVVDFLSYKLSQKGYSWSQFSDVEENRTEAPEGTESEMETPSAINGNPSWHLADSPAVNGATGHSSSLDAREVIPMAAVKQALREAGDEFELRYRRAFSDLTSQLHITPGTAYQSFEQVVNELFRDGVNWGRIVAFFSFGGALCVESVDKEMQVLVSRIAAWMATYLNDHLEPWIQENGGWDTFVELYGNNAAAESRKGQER
BCL-2, sequence (P10415 1-207): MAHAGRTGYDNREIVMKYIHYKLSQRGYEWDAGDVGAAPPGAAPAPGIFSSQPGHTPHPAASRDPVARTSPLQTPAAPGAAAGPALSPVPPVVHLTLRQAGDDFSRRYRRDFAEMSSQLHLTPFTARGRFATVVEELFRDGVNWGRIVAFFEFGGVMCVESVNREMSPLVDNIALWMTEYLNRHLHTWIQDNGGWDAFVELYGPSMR

B1: αBAX1 (designed binder)
chain: GADPKKVLDKARDQAENRVRELAQKLEELYKEARKLDLTQEERRKLEKRYKAAMEEAIKDIHEAIEQAKEEADKLKDAGLVNEQQLKELKQRLNELAIAAAFRASGDTIEFRRKLQYG
modifications: biotinylated for BLI (Avi tag). Limits not printed in the text (constructs as in cited earlier work); the soluble form lacking the C-terminal tail is taken by convention. Any solubility mutations are not stated
B1 showed a Kd (BCL-W) of 300 µM.

B2: BAX-CDP01 (BAX-targeting computationally designed protein 01) (designed binder)
chain: GADPKKVLDKARDQAENRVRELAQKLEELYKEARKLDLTQEERRKLEKRYKAAMEEAIKDIREAIRQAKQEADKLKKAGLVNSQQLKELKQRLNELAIAAALRAIGDAIEFRRKLQYG
modifications: biotinylated for BLI (Avi tag). Limits not printed in the text (constructs as in cited earlier work); the soluble form lacking the C-terminal tail is taken by convention. Any solubility mutations are not stated
With B2 the Kd (BCL-W) was 6 µM.

B3: BAX-CDP01 (BAX-targeting computationally designed protein 01) (designed binder)
chain: GADPKKVLDKARDQAENRVRELAQKLEELYKEARKLDLTQEERRKLEKRYKAAMEEAIKDIREAIRQAKQEADKLKKAGLVNSQQLKELKQRLNELAIAAALRAIGDAIEFRRKLQYG
modifications: biotinylated for BLI (Avi tag). Limits not given; the soluble form lacking the transmembrane segment (210-226) is taken by convention. Any loop deletion is not stated
Binder B3 has a Kd (BCL-XL) of 0.038 µM.

B4: αBAX2 (designed binder)
chain: GADPKKVLDKARDQAENRVRELRQKLTELYKEARKLDLTQEERRKLIKRYKAAMNEAIKDIHEAIEQAKEEADKLKDAGLVNEQQLKELKQRLNEKALAAAFRASGDTWHARRKLQYG
modifications: biotinylated for BLI (Avi tag). Limits not given; the soluble form lacking the transmembrane segment (183-200) is taken by convention
For B4, the Kd (BCL-B) was 80 µM.

B5: αBAX2 (designed binder)
chain: GADPKKVLDKARDQAENRVRELRQKLTELYKEARKLDLTQEERRKLIKRYKAAMNEAIKDIHEAIEQAKEEADKLKDAGLVNEQQLKELKQRLNEKALAAAFRASGDTWHARRKLQYG
modifications: biotinylated for BLI (Avi tag). Limits not given; the conventional BCL-2-fold core 172-327 is taken
For B5, the Kd (MCL-1) was 18 µM.

B6: BAX-CDP01 (BAX-targeting computationally designed protein 01) (designed binder)
chain: GADPKKVLDKARDQAENRVRELAQKLEELYKEARKLDLTQEERRKLEKRYKAAMEEAIKDIREAIRQAKQEADKLKKAGLVNSQQLKELKQRLNELAIAAALRAIGDAIEFRRKLQYG
modifications: biotinylated for BLI (Avi tag). Limits not given; the soluble form lacking the transmembrane segment (183-200) is taken by convention
B6 showed a Kd (BCL-B) of 2 µM.

B7: BAX-CDP01 (BAX-targeting computationally designed protein 01) (designed binder)
chain: GADPKKVLDKARDQAENRVRELAQKLEELYKEARKLDLTQEERRKLEKRYKAAMEEAIKDIREAIRQAKQEADKLKKAGLVNSQQLKELKQRLNELAIAAALRAIGDAIEFRRKLQYG
modifications: biotinylated for BLI (Avi tag). Limits not given; the conventional BCL-2-fold core 172-327 is taken
Work on B7 yielded a Kd (MCL-1) of 0.01 µM.

B8: BAX-CDP01 (BAX-targeting computationally designed protein 01) (designed binder)
chain: GADPKKVLDKARDQAENRVRELAQKLEELYKEARKLDLTQEERRKLEKRYKAAMEEAIKDIREAIRQAKQEADKLKKAGLVNSQQLKELKQRLNELAIAAALRAIGDAIEFRRKLQYG
With B8 the Kd (BCL-2) was 0.05 µM, the Kd (BFL-1) was 0.023 µM and the Kd [1] was 3.1 µM.

B9: αBAX2 (designed binder)
chain: GADPKKVLDKARDQAENRVRELRQKLTELYKEARKLDLTQEERRKLIKRYKAAMNEAIKDIHEAIEQAKEEADKLKDAGLVNEQQLKELKQRLNEKALAAAFRASGDTWHARRKLQYG
modifications: biotinylated for BLI (Avi tag). Limits not given; the soluble form lacking the transmembrane segment (210-226) is taken by convention. Any loop deletion is not stated
B9 was tested, and the Kd (BCL-XL) was 1.09 µM.

B10: αBAX1 (designed binder)
chain: GADPKKVLDKARDQAENRVRELAQKLEELYKEARKLDLTQEERRKLEKRYKAAMEEAIKDIHEAIEQAKEEADKLKDAGLVNEQQLKELKQRLNELAIAAAFRASGDTIEFRRKLQYG
modifications: biotinylated for BLI (Avi tag). Limits not given; the soluble form lacking the transmembrane segment (210-226) is taken by convention. Any loop deletion is not stated
B10 gave a Kd (BCL-XL) of 0.51 µM.

B11: αBAX2 (designed binder)
chain: GADPKKVLDKARDQAENRVRELRQKLTELYKEARKLDLTQEERRKLIKRYKAAMNEAIKDIHEAIEQAKEEADKLKDAGLVNEQQLKELKQRLNEKALAAAFRASGDTWHARRKLQYG
modifications: biotinylated for BLI (Avi tag). Limits not printed in the text (constructs as in cited earlier work); the soluble form lacking the C-terminal tail is taken by convention. Any solubility mutations are not stated
B11 was tested, and the Kd (BCL-W) was 30 µM.

B12: αBAX1 (designed binder)
chain: GADPKKVLDKARDQAENRVRELAQKLEELYKEARKLDLTQEERRKLEKRYKAAMEEAIKDIHEAIEQAKEEADKLKDAGLVNEQQLKELKQRLNELAIAAAFRASGDTIEFRRKLQYG
modifications: biotinylated for BLI (Avi tag). Limits not given; the conventional BCL-2-fold core 172-327 is taken
Work on B12 yielded a Kd (MCL-1) of 0.6 µM.

B13: αBAX1 (designed binder)
chain: GADPKKVLDKARDQAENRVRELAQKLEELYKEARKLDLTQEERRKLEKRYKAAMEEAIKDIHEAIEQAKEEADKLKDAGLVNEQQLKELKQRLNELAIAAAFRASGDTIEFRRKLQYG
modifications: biotinylated for BLI (Avi tag). Limits not given; the soluble form lacking the transmembrane segment (183-200) is taken by convention
B13 showed a Kd (BCL-B) of over 20 µM.

B14: αBAK2 (designed binder)
chain: GADPKKVLDKADDQMENVVVTLKQELEELAKERRKLDLTQSEKIELKLRYIVAHLAAIGDIEEAIREAKEEADKLKKAGLVNSQQFAEFKRRLEELHKEADRKRRDYAEEFRNKLEYG
modifications: biotinylated for BLI (Avi tag). Limits not given; the soluble form lacking the transmembrane segment (183-200) is taken by convention
Work on B14 yielded a Kd (BCL-B) of 3 µM.
